Measured values reported in PMC2113854.
Values belong to the substance of their own block, whether it stands above or below them.

What was measured:
[1] = biological target: EGF/TGF-alpha receptor of normal rat kidney (NRK) cells (170-kD receptor species) (rat (endogenous in NRK)); test: radioligand binding
[2] = biological target: EGF/TGF-alpha receptor of A431 cells (human (endogenous in A431)) (UniProt P00533); test: radioligand binding

- specific binding at 0.3 nM ligand, monolayers not treated with TGF-beta (Fig. 2) [1]: 785 cpm/well
Substance: 125I-labeled mouse submaxillary gland epidermal growth factor (125I-EGF) (ligand)

- 125I-TGF-alpha bound with 66 nM TGF-beta (NRK membranes) (fmol/mg protein) [1]: 5.6
- 125I-TGF-alpha bound with 330 nM TGF-beta (NRK membranes) (fmol/mg protein) [1]: 5.6
- 125I-TGF-alpha bound, no competing ligand (NRK membranes) (fmol/mg protein) [1]: 5.4
- Kd, high-affinity sites [1]: 0.2 to 0.3 nM
- Kd, low-affinity sites [1]: 2.7 to 2.9 nM
- specific binding at 0.3 nM ligand, cells not treated with TGF-beta (Fig. 1A) [1]: 810 cpm/well
Substance: 125I-labeled transforming growth factor-alpha (125I-TGF-alpha) (from UniProt P01134 39-88) (ligand)

- 125I-TGF-alpha bound with 66 nM EGF (A431 membranes) (fmol/mg protein) [2]: 140
- 125I-TGF-alpha bound with 66 nM EGF (NRK membranes) (fmol/mg protein) [1]: 1.6
Substance: mouse submaxillary gland epidermal growth factor (native, unlabeled EGF) (ligand)

- 125I-TGF-alpha bound with 66 nM TGF-alpha (NRK membranes) (fmol/mg protein) [1]: 1.2
Substance: transforming growth factor-alpha (native, unlabeled TGF-alpha) (from UniProt P01134 39-88) (ligand)
